Measured values published in the supplement of paper PMC7877785.
± gives the uncertainty stated by the source.

Assay: self-splicing fitness, log relative to wild type (ln ratio); higher = more splicing; Tetrahymena group I intron in knt gene, E. coli kanamycin selection, DiMSum; sequences stand for … in CUCUCU…GGAGGGAAAAGUUAUCAGGCAUGCACCUGGUAGCUAGUCUUUAAACCAAUAGAUUGCAUCGGUUUAAAAGGCAAGACCGUCAAAUUGCGGGAAAGGGGUCAACAGCCGUUCAGUACCAAGUCUCAGGGGAAACUUUGAGAUGGCCUUGCAAAGGGUAUGGUAAUAAGCUGACGGACAUGGUCCUAACCACGCAGCCAAGUCCUAAGUCAACAGAUCUUCUGUUGAUAUGGAUGCAGUUCACAGACUAAAUGUCGGUCGGGGAAGAUGUAUUCUUCUCAUAAGAUAUAGUCGGACCUCUCCUUAAUGGGAGCUAGCGGAUGAAGUGAUGCAACACUGGAGCCGCUGGGAACUAAUUUGUAUGCGAAAGUAUAUUGAUUAGUUUUGGAGUACUCGUGGUCG
Method in brief: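 Colonies from six replicate transformations of E. coli BL21(DE3) were pooled and amplicon-sequenced on an Illumina HiSeq 2500. The library placed an intron with all eight P1ex-region nucleotides randomised inside the knt kanamycin-resistance gene on pET-22b(+), and cells grew overnight at 37°C or 30°C on LB agar with or without 25 μg/mL kanamycin (plus 100 μg/mL carbenicillin, 50 μM IPTG, 0.2% rhamnose). Fitness is the DiMSum error-weighted combination of wild-type-normalised replicate fold changes, kanamycin versus none.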

Row | Sequence | self-splicing fitness (ln) (30 °C) | self-splicing fitness (ln) (37 °C)
1 | CAGCAGCAAUAUUACGUAGG | -0.47 ± 0.063 | -0.331 ± 0.094
2 | CAGCAGCAAUAUUACGUCGG | -0.346 ± 0.063 | -0.0699 ± 0.09
3 | CAGCAGCAAUAUUACGUGAA | -2.06 ± 0.075 | -0.955 ± 0.09
4 | CAGCAGCAAUAUUACGUGAC | -3.41 ± 0.24 | -1.86 ± 0.19
5 | CAGCAGCAAUAUUACGUGAG | -0.675 ± 0.06 | -0.267 ± 0.086
6 | CAGCAGCAAUAUUACGUGGG | -3.53 ± 0.14 | -2.31 ± 0.11
7 | CAGGAGCAAUAUUACGAACG | -0.795 ± 0.11 | -0.844 ± 0.13
8 | CAGGAGCAAUAUUACGAAUG | -3.6 ± 0.2 | -2.76 ± 0.22
9 | CAGGAGCAAUAUUACGACUU | -1.48 ± 0.19 | -0.618 ± 0.22
10 | CAGGAGCAAUAUUACGCAUU |  | 0.11 ± 0.4
11 | CAGGAGCAAUAUUACGCCGU | -4.09 ± 0.31 | -2.29 ± 0.29
12 | CAGGAGCAAUAUUACGCGCA | -3.62 ± 0.3 | -1.62 ± 0.25
13 | CAGGAGCAAUAUUACGGACG | -0.757 ± 0.1 | -0.376 ± 0.11
14 | CAGGAGCAAUAUUACGGAGC | -2.2 ± 0.39 | -3.3 ± 0.47
15 | CAGGAGCAAUAUUACGGGGA | -5.01 ± 0.38 | -3.47 ± 0.37
16 | CAGGAGCAAUAUUACGUCGG | -0.734 ± 0.099 | -0.66 ± 0.13
17 | CAGUAGCAAUAUUACGAAAA | -3.58 ± 0.47 | -1.8 ± 0.32
18 | CAGUAGCAAUAUUACGAAUU | -3.34 ± 0.28 | 
19 | CAGUAGCAAUAUUACGACUU | 0.0553 ± 0.058 | 0.35 ± 0.071
20 | CAGUAGCAAUAUUACGAUAA | -3.55 ± 0.47 | 
21 | CAGUAGCAAUAUUACGAUCA | -1.67 ± 0.24 | -2.04 ± 0.32
22 | CAGUAGCAAUAUUACGAUGU | -2.34 ± 0.16 | -1.65 ± 0.18
23 | CAGUAGCAAUAUUACGCAUA | -2.04 ± 0.2 | -1.59 ± 0.21
24 | CAGUAGCAAUAUUACGCAUG | -2.31 ± 0.2 | -2.46 ± 0.29
25 | CAGUAGCAAUAUUACGCUCC |  | -1.31 ± 0.4

Row | Sequence | self-splicing fitness (ln) (30 °C) | self-splicing fitness (ln) (37 °C)
26 | CAGUAGCAAUAUUACGGGCG | -0.256 ± 0.089 | 0.0762 ± 0.098
27 | CAGUAGCAAUAUUACGGUUA | -2.63 ± 0.14 | -2.69 ± 0.15
28 | CAGUAGCAAUAUUACGUCUU | -1.17 ± 0.067 | 0.135 ± 0.076
29 | CAGUAGCAAUAUUACGUGAC | -4.5 ± 0.36 | -2.23 ± 0.31
30 | CAGUAGCAAUAUUACGUGCA | -3.14 ± 0.13 | -2.45 ± 0.14
31 | CAGUAGCAAUAUUACGUGUA | -4.62 ± 0.34 | -2.55 ± 0.19
32 | CAGUAGCAAUAUUACGUUCG | 0.207 ± 0.07 | 0.209 ± 0.1
33 | CAUAAGCAAUAUUACGAAAC | -3.31 ± 0.39 | -2.38 ± 0.45
34 | CAUAAGCAAUAUUACGACAA | -3.05 ± 0.28 | -1.59 ± 0.19
35 | CAUAAGCAAUAUUACGACAG | -0.32 ± 0.072 | 0.334 ± 0.09
36 | CAUAAGCAAUAUUACGACCG | 0.135 ± 0.085 | 0.553 ± 0.14
37 | CAUAAGCAAUAUUACGACGA | -2.01 ± 0.17 | -0.546 ± 0.11
38 | CAUAAGCAAUAUUACGACUA | -1.94 ± 0.095 | -0.427 ± 0.078
39 | CAUAAGCAAUAUUACGAUAA | -4.17 ± 0.37 | -1.45 ± 0.2
40 | CAUAAGCAAUAUUACGAUAG | 0.359 ± 0.072 | 0.232 ± 0.084
41 | CAUAAGCAAUAUUACGCCCA | -2.14 ± 0.21 | -1.35 ± 0.29
42 | CAUAAGCAAUAUUACGCCCU | -2.76 ± 0.43 | -2.4 ± 0.49
43 | CAUAAGCAAUAUUACGGCCC | -3.92 ± 0.4 | 
44 | CAUAAGCAAUAUUACGGCUU | -2.75 ± 0.2 | -3.07 ± 0.32
45 | CAUAAGCAAUAUUACGGUAG | -1.06 ± 0.087 | -0.382 ± 0.089
46 | CAUAAGCAAUAUUACGGUAU | -4.64 ± 0.26 | -2.94 ± 0.21
47 | CAUAAGCAAUAUUACGGUCC | -3.2 ± 0.25 | -2.28 ± 0.31
48 | CAUAAGCAAUAUUACGGUGC | -3.51 ± 0.18 | -3.18 ± 0.24
49 | CAUAAGCAAUAUUACGUAUA | -3.21 ± 0.12 | -2.32 ± 0.13
